Where a SMILES comes first, the peptide text is derived from it.
What was measured:
Test in all cases: Kinase Profiling Assay
Format in all cases: biochemical
TrkB(h) = TrkB(h) (Homo sapiens, UniProt Q16620); details: for TrkB(h) % activity: 100 μM peptide
How it was run: (§1)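 MK2 inhibitory peptides were screened for specificity across a commercial panel of 266 human kinases, and each kinase activity measurement was run in duplicate.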

CHK2(I157T)(h) = CHK2(I157T)(h) (Homo sapiens, UniProt O96017, I157T); details: 100 μM peptide
How it was run: as §1

SAPK2b(h) = SAPK2b(h) (Homo sapiens, UniProt Q15759); details: 100 μM peptide
How it was run: as §1

BrSK2(h) = target: T1, BrSK2(h) (Homo sapiens, UniProt Q8IWQ3); details: 100 μM peptide
T1 sequence (Q8IWQ3 1-736): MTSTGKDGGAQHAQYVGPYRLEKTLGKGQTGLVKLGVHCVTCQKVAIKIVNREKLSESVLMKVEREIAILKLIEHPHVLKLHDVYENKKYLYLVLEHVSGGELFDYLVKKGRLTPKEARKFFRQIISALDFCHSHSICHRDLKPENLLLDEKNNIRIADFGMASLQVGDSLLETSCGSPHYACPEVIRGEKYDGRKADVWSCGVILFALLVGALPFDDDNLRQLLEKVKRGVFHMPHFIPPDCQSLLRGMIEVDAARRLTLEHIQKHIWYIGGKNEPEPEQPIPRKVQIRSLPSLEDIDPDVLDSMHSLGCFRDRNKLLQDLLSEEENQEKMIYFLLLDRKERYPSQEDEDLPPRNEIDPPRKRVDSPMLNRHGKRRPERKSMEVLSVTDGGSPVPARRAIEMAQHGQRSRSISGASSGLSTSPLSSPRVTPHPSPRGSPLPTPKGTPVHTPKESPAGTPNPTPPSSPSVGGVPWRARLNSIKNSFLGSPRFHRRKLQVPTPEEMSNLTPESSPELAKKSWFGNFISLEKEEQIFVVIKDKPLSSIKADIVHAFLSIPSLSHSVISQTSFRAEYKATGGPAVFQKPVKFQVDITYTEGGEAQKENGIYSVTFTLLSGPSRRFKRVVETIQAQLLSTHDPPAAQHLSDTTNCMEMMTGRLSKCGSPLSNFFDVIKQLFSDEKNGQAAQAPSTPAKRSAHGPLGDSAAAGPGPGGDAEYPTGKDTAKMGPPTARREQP
How it was run: as §1

CDK3/cyclinE(h) = CDK3/cyclinE(h) (Homo sapiens, UniProt Q00526); details: 100 μM peptide
How it was run: as §1

CHK2(h) = CHK2(h) (Homo sapiens, UniProt O96017); details: 100 μM peptide
How it was run: as §1

Pim-1(h) = Pim-1(h) (Homo sapiens, UniProt P11309); details: 100 μM peptide
How it was run: as §1

TSSK2(h) = target: T2, TSSK2(h) (Homo sapiens, UniProt Q96PF2); details: 100 μM peptide
T2 sequence (Q96PF2 1-358): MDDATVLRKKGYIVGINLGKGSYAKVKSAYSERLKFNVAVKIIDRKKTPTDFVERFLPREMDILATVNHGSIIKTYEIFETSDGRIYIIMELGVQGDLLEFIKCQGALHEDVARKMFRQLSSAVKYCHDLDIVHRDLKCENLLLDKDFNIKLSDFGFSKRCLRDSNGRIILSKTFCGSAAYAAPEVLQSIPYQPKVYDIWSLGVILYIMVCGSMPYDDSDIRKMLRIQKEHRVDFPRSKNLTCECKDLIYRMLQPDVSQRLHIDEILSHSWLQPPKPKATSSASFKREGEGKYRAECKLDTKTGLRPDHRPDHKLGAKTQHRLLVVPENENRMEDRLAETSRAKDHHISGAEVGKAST
How it was run: as §1

PKCδ(h) = PKCδ(h) (Homo sapiens, UniProt Q05655); details: 100 μM peptide
How it was run: as §1

Met(h) = Met(h) (Homo sapiens, UniProt P08581); details: 100 μM peptide
How it was run: as §1

Met(D1246H)(h) = Met(D1246H)(h) (Homo sapiens, UniProt P08581, D1228H); details: 100 μM peptide
How it was run: as §1

EphB2(h) = target: T3, EphB2(h) (Homo sapiens, UniProt P29323); details: 100 μM peptide
T3 sequence (P29323 19-1055): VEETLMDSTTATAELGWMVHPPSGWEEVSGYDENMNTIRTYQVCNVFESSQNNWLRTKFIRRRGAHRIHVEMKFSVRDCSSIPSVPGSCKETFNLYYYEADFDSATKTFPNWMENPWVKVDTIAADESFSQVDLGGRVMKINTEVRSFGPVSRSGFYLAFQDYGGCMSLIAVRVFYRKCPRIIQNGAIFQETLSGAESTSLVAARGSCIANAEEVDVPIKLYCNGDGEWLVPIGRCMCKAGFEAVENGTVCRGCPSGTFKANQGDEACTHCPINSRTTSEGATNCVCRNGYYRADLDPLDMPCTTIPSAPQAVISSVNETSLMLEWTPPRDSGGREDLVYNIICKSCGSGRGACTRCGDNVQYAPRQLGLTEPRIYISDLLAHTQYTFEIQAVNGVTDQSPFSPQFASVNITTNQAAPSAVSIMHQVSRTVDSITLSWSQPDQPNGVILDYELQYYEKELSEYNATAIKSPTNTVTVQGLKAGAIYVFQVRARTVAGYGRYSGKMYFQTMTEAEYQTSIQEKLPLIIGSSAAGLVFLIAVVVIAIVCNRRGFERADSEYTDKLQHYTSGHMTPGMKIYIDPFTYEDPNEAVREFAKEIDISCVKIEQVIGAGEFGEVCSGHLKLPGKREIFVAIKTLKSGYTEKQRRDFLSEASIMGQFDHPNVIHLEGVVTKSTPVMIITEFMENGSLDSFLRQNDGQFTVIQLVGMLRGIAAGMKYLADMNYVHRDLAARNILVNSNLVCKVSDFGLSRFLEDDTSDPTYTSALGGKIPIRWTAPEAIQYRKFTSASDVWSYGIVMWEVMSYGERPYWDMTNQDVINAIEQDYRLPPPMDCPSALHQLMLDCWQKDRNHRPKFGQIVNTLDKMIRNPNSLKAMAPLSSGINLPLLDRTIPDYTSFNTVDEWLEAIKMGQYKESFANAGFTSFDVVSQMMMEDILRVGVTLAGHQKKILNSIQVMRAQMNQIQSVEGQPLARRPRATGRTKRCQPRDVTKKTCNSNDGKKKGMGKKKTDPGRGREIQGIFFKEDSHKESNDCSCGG
How it was run: as §1

Met(Y1248H)(h) = Met(Y1248H)(h) (Homo sapiens, UniProt P08581, Y1230H); details: 100 μM peptide
How it was run: as §1

Chain of CHK2(I157T)(h) (O96017 whole entry I157T): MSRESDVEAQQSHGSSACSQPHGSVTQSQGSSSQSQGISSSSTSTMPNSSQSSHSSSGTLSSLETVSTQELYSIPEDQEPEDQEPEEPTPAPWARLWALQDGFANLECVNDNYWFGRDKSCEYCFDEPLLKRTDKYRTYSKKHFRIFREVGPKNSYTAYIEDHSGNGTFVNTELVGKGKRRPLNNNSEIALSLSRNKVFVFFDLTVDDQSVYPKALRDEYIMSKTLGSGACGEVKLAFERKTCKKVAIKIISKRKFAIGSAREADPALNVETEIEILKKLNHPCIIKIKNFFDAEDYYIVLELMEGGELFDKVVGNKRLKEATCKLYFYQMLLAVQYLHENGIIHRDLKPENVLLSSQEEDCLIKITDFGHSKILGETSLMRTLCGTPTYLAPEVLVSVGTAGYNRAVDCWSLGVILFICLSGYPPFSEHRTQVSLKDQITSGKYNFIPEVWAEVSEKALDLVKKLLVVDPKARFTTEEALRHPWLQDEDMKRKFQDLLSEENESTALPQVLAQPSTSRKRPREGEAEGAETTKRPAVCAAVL
Chain of PKCδ(h) (Q05655 whole entry): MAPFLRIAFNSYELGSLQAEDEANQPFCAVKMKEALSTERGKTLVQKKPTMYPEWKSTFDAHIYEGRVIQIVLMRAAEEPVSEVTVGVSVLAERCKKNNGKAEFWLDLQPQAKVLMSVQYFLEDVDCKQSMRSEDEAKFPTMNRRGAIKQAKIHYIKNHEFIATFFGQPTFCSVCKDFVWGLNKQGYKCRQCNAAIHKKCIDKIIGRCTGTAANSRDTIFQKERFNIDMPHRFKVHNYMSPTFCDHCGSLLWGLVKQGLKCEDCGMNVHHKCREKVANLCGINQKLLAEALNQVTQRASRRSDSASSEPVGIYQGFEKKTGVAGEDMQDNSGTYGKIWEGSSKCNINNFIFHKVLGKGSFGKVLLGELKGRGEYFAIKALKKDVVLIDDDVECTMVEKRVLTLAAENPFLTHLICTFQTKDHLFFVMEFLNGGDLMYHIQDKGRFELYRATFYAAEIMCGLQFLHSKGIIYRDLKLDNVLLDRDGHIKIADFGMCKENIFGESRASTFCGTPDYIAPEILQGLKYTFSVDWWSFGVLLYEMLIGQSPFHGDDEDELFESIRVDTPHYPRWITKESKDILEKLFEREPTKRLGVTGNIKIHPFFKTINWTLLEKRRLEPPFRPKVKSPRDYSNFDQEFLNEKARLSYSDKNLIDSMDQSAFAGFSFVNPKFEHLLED
Chain of CDK3/cyclinE(h) (Q00526 whole entry): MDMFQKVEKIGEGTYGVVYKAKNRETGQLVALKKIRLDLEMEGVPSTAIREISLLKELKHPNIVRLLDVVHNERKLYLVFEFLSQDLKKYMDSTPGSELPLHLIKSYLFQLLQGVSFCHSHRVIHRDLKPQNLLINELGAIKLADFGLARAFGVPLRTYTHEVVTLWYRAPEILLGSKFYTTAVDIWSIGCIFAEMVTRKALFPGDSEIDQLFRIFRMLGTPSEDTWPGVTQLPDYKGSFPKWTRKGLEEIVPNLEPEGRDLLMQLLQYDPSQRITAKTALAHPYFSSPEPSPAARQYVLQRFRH
Chain of CDK3/cyclinE(h) (P24864 whole entry partner): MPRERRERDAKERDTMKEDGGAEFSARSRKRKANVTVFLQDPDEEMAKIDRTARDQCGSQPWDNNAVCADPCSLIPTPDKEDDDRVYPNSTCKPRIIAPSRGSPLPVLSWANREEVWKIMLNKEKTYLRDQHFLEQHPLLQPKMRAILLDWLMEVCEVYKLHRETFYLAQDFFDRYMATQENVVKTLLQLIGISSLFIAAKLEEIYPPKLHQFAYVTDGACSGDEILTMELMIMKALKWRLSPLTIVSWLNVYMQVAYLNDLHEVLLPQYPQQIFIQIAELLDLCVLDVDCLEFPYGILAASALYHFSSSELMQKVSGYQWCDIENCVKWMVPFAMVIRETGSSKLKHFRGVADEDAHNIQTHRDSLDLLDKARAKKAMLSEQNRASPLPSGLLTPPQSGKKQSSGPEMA
Chain of CHK2(h) (O96017 whole entry): as the sequence (O96017 whole entry I157T) above, with T157I counted along it
Chain of Pim-1(h) (P11309 whole entry): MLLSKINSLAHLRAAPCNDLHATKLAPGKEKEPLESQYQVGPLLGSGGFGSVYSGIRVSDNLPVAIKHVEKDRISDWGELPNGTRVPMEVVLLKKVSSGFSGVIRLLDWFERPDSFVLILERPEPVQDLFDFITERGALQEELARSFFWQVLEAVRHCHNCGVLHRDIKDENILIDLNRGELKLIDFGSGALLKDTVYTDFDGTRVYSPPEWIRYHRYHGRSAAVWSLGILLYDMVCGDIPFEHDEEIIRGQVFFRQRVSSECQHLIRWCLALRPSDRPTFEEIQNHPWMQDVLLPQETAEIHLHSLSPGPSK
Chain of SAPK2b(h) (Q15759 whole entry): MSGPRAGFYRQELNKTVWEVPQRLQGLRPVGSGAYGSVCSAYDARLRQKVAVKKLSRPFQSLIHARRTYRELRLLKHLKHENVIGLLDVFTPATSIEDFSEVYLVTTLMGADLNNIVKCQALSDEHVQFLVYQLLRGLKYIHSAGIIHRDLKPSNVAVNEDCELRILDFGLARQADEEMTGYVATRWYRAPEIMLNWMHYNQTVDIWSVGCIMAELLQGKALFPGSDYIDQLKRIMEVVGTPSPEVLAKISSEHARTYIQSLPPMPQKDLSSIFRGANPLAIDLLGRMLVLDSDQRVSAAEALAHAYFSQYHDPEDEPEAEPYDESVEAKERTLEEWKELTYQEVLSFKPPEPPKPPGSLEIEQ

Compound | inhibition at 100 µM (TrkB(h); read-out: inhibition of kinase activity of TrkB) | CHK2(I157T)(h) % activity (CHK2(I157T)(h)) | SAPK2b(h) % activity (SAPK2b(h)) | TrkB(h) % activity (TrkB(h)) | BrSK2(h) % activity (BrSK2(h)) | CDK3/cyclinE(h) % activity (CDK3/cyclinE(h)) | CHK2(h) % activity (CHK2(h)) | Pim-1(h) % activity (Pim-1(h)) | TSSK2(h) % activity (TSSK2(h)) | PKCδ(h) % activity (PKCδ(h)) | Met(h) % activity (Met(h)) | Met(D1246H)(h) % activity (Met(D1246H)(h)) | EphB2(h) % activity (EphB2(h)) | Met(Y1248H)(h) % activity (Met(Y1248H)(h))
CC(C)C[C@H](NC(=O)[C@H](C)NC(=O)[C@H](CCCCN)NC(=O)[C@H](C)NC(=O)[C@H](CCCNC(=N)N)NC(=O)[C@H](C)NC(=O)[C@H](CCC(N)=O)NC(=O)[C@H](CCCNC(=N)N)NC(=O)[C@H](C)NC(=O)[C@H](C)NC(=O)[C@H](C)NC(=O)[C@H](CCCNC(=N)N)NC(=O)[C@H](C)NC(=O)[C@@H](N)Cc1ccc(O)cc1)C(=O)N[C@@H](C)C(=O)N[C@@H](CCCNC(=N)N)C(=O)N[C@@H](CCC(N)=O)C(=O)N[C@@H](CC(C)C)C(=O)NCC(=O)N[C@H](C(=O)N[C@@H](C)C(=O)N[C@@H](C)C(=O)O)C(C)C [MMI-0100] (H-YARAAARQARAKALARQLGVAA-OH; N-terminus and C-terminus assumed) | > 65% |  |  |  |  |  |  |  |  |  |  |  |  | 
FAKLAARLYRKALARQLGVAA [MMI-0300] |  | 43% | 81% | 5% | 83% | 94% | 66% | 8% | 98% | 101% | 65% | 125% | 18% | 
HRRIKAWLKKIKALARQLGVAA (Mammalian) [MMI-0500] |  | 3% | 42% | 12% | 84% | 8% | 13% | 0% | 92% | 61% | 27% | 150% | 70% | 126%
KAFAKLAARLYRKALARQLGVAA [MMI-0400] |  | 41% | 82% | 8% | 86% | 92% | 54% | 7% | 94% | 90% | 62% | 68% | 22% | 63%
YARAAARQARAKALNRQLGVA (Mammalian) [MMI-0200] |  | 85% | 95% | 7% |  |  |  | 18% | 91% | 101% | 71% | 139% | 128% | 153%

From patent publication US10562947B2, “Compositions and methods for preventing or treating diseases, conditions or processes characterized by aberrant fibroblast proliferation and extracellular matrix deposition” (MOERAE MATRIX, INC., priority 2011, dated 2020)
